In patent US20200024322A1 (Eli Lilly, published 2020):
Numbered stars: 1 amine (or outer) side, 2 acyl side, 3 side chain; on linkers, the order of the positions; unused ones are H or OH. Square brackets hold non-standard residues; d marks the D form. Side chains are listed from the residue outwards. Ends that are not written are not given here. * marks the point of attachment. C20 diacid = O=C(O)CCCCCCCCCCCCCCCCCCC(=O)*; γGlu = O=C(O)[C@H](CCC(=O)[*:2])N[*:1]; Desaminotyrosyl = O=C(CCc1ccc(O)cc1)*; αMeF = C[C@](N)(Cc1ccccc1)C(=O)O; AEEA = NCCOCCOCC(=O)O; Aib = CC(C)(N)C(=O)O

Tests used:
[1] = molecular target: T1, human GLP-1 receptor (human, UniProt P43220 24-463); experiment: SPA, [125I]-GLP-1 displacement, hGLP-1R membranes
T1 construct: whole, on cells; Used as crude membranes of stably transfected HEK293 cells; also called hGLP1R; hGLP-1R

[2] = molecular target: T2, human glucagon receptor (human, UniProt P47871 26-477); experiment: SPA, [125I]-Gcg displacement, hGcgR membranes
T2 construct: whole, on cells; Used as crude membranes of stably transfected HEK293 cells; also called hGcgR; hGLcgR
T2 sequence (P47871 26-477): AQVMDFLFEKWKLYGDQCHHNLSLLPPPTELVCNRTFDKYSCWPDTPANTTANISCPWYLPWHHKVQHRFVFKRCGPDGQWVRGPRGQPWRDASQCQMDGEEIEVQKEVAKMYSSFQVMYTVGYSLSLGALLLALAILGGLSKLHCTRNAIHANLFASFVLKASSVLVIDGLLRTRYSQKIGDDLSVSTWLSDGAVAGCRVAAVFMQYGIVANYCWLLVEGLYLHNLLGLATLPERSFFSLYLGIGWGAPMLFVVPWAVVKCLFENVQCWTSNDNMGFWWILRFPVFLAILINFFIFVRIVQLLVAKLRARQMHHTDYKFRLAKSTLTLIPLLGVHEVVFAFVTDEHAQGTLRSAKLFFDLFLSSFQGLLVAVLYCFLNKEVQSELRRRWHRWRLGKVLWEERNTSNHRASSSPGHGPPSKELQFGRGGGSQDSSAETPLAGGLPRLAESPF

[3] = molecular target: T3, human GIP receptor (human, UniProt P48546 22-466); experiment: SPA, [125I]-GIP displacement, hGIPR membranes
T3 construct: whole, on cells; Used as crude membranes of stably transfected CHO cells; also called hGIPR
T3 sequence (looked up): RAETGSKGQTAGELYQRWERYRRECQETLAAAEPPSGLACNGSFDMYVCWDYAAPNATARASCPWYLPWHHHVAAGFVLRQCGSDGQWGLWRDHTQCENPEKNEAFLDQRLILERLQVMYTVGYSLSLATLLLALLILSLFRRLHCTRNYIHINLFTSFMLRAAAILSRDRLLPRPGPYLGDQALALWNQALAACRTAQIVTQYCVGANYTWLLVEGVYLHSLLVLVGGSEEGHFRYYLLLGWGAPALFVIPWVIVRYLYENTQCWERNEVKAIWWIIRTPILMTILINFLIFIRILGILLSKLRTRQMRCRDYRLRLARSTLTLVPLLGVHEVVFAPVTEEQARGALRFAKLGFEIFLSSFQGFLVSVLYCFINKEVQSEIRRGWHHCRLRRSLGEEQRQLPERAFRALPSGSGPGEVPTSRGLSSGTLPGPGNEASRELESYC

B1: Example 10 (peptide)
peptide: Y[Aib]EGTFTSDYSILLDSIAQ[Aib]AFIK([AEEA-AEEA-γGlu-C20 diacid])YLLA[Aib]GPSSGAPPPS-NH2
modifications: N-terminus assumed
SMILES: CC[C@H](C)[C@H](NC(=O)[C@H](CO)NC(=O)[C@H](CC(=O)O)NC(=O)[C@H](CC(C)C)NC(=O)[C@H](CC(C)C)NC(=O)[C@@H](NC(=O)[C@H](CO)NC(=O)[C@H](Cc1ccc(O)cc1)NC(=O)[C@H](CC(=O)O)NC(=O)[C@H](CO)NC(=O)[C@@H](NC(=O)[C@H](Cc1ccccc1)NC(=O)[C@@H](NC(=O)CNC(=O)[C@H](CCC(=O)O)NC(=O)C(C)(C)NC(=O)[C@@H](N)Cc1ccc(O)cc1)[C@@H](C)O)[C@@H](C)O)[C@@H](C)CC)C(=O)N[C@@H](C)C(=O)N[C@@H](CCC(N)=O)C(=O)NC(C)(C)C(=O)N[C@@H](C)C(=O)N[C@@H](Cc1ccccc1)C(=O)N[C@H](C(=O)N[C@@H](CCCCNC(=O)COCCOCCNC(=O)COCCOCCNC(=O)CC[C@H](NC(=O)CCCCCCCCCCCCCCCCCCC(=O)O)C(=O)O)C(=O)N[C@@H](Cc1ccc(O)cc1)C(=O)N[C@@H](CC(C)C)C(=O)N[C@@H](CC(C)C)C(=O)N[C@@H](C)C(=O)NC(C)(C)C(=O)NCC(=O)N1CCC[C@H]1C(=O)N[C@@H](CO)C(=O)N[C@@H](CO)C(=O)NCC(=O)N[C@@H](C)C(=O)N1CCC[C@H]1C(=O)N1CCC[C@H]1C(=O)N1CCC[C@H]1C(=O)N[C@@H](CO)C(N)=O)[C@@H](C)CC
Ki [1]: 9.33 nM | Ki [2]: 226 nM | Ki [3]: 0.109 nM

B2: Example 11 (peptide)
peptide: Y[Aib]EGTFTSDYSILLDSIAQ[Aib]AFIEYLLK([AEEA-AEEA-γGlu-C20 diacid])[Aib]GPSSGAPPPS-NH2
modifications: N-terminus assumed
SMILES: CC[C@H](C)[C@H](NC(=O)[C@H](CO)NC(=O)[C@H](CC(=O)O)NC(=O)[C@H](CC(C)C)NC(=O)[C@H](CC(C)C)NC(=O)[C@@H](NC(=O)[C@H](CO)NC(=O)[C@H](Cc1ccc(O)cc1)NC(=O)[C@H](CC(=O)O)NC(=O)[C@H](CO)NC(=O)[C@@H](NC(=O)[C@H](Cc1ccccc1)NC(=O)[C@@H](NC(=O)CNC(=O)[C@H](CCC(=O)O)NC(=O)C(C)(C)NC(=O)[C@@H](N)Cc1ccc(O)cc1)[C@@H](C)O)[C@@H](C)O)[C@@H](C)CC)C(=O)N[C@@H](C)C(=O)N[C@@H](CCC(N)=O)C(=O)NC(C)(C)C(=O)N[C@@H](C)C(=O)N[C@@H](Cc1ccccc1)C(=O)N[C@H](C(=O)N[C@@H](CCC(=O)O)C(=O)N[C@@H](Cc1ccc(O)cc1)C(=O)N[C@@H](CC(C)C)C(=O)N[C@@H](CC(C)C)C(=O)N[C@@H](CCCCNC(=O)COCCOCCNC(=O)COCCOCCNC(=O)CC[C@H](NC(=O)CCCCCCCCCCCCCCCCCCC(=O)O)C(=O)O)C(=O)NC(C)(C)C(=O)NCC(=O)N1CCC[C@H]1C(=O)N[C@@H](CO)C(=O)N[C@@H](CO)C(=O)NCC(=O)N[C@@H](C)C(=O)N1CCC[C@H]1C(=O)N1CCC[C@H]1C(=O)N1CCC[C@H]1C(=O)N[C@@H](CO)C(N)=O)[C@@H](C)CC
Ki [1]: 15.7 nM | Ki [2]: 174 nM | Ki [3]: 0.226 nM

B3: Example 137 (peptide)
peptide: YXEGTXTSDYSIXLDKKAQXXFIEYLIEGGPSSGAPPPS
modifications: Aib2; αMeF6; αMeL13; K17((2-[2-(2-Amino-ethoxy)-ethoxy]-acetyl)2-(γ-Glu)-CO-(CH2)18-CO2H); Aib20; Aad21; C-terminal NH2
Ki [1]: 1.24 nM | Ki [2]: 98.1 nM | Ki [3]: 0.0373 nM

B4: Example 206 (peptide)
peptide: YXEGTXTSDXSIXLDEKAQXEFIXYLIEGGPSSGAPPPS
modifications: Aib2; αMeF(2F)6; 4Pal10; αMeL13; K17((2-[2-(2-Amino-ethoxy)-ethoxy]-acetyl)2-CO-(CH2)18-CO2H); Aib20; D-Glu24; C-terminal NH2
Ki [1]: 5.27 nM | Ki [2]: 176 nM | Ki [3]: 0.0814 nM

B5: Example 205 (peptide)
peptide: YXEGTXTSDXSIXLDEKAQXEFIXYLIEGGPSSGAPPPS
modifications: Aib2; αMeF(2F)6; 4Pal10; αMeL13; K17((2-[2-(2-Amino-ethoxy)-ethoxy]-acetyl)2-CO-(CH2)16-CO2H); Aib20; D-Glu24; C-terminal NH2
Ki [1]: 3.05 nM | Ki [2]: 438 nM | Ki [3]: 0.0367 nM

B6: Example 158 (peptide)
peptide: YXEGTXTSDXSIXLDEKAQXEFIEYLIEGGPSSGAPPPS
modifications: Aib2; αMeF(2F)6; 4Pal10; αMeL13; K17((2-[2-(2-Amino-ethoxy)-ethoxy]-acetyl)2-(γ-Glu)-CO-(CH2)18-CO2H); Aib20; C-terminal NH2
Ki [1]: 11.8 nM | Ki [2]: 285 nM | Ki [3]: 0.114 nM

B7: Example 181 (peptide)
peptide: YXEGTXTSDXSIXLDEKAQXEFIXYLIEGGPSSGAPPPS
modifications: not printed (the compound name of this Example is missing from the table of Examples 6-287)
Ki [1]: 7.28 nM | Ki [2]: 413 nM | Ki [3]: 0.145 nM

B8: Example 147 (peptide)
peptide: YXEGTXTSDYSIXLDEKAQXEFIXYLIEGGPSSGAPPPS
modifications: Aib2; αMeF(2F)6; αMeL13; K17((2-[2-(2-Amino-ethoxy)-ethoxy]-acetyl)2-(γ-Glu)-CO-(CH2)18-CO2H); Aib20; Aad24; C-terminal NH2
Ki [1]: 4.47 nM | Ki [2]: 64.9 nM | Ki [3]: 0.0981 nM

B9: Example 152 (peptide)
peptide: YXEGTXTSDYSIXLDEKAQXEFIXYLIEGGPSSGAPPPS
modifications: Aib2; αMeF(2F)6; αMeL13; K17((2-[2-(2-Amino-ethoxy)-ethoxy]-acetyl)2-(γ-Glu)-CO-(CH2)18-CO2H); Aib20; Aib24; C-terminal NH2
Ki [1]: 48 nM | Ki [2]: 93.4 nM | Ki [3]: 0.117 nM

B10: Example 182 (peptide)
peptide: YXEGTXTSDXSIXLDEKAQXEFIXYLIEGGPSSGAPPPS
modifications: not printed (the compound name of this Example is missing from the table of Examples 6-287)
Ki [1]: 4.64 nM | Ki [2]: 565 nM | Ki [3]: 0.0669 nM

B11: Example 207 (peptide)
peptide: YXEGTXTSDXSIXLDEKAQXEFIXYLIEGGPSSGAPPPS
modifications: Aib2; αMeF(2F)6; 4Pal10; αMeL13; K17((2-[2-(2-Amino-ethoxy)-ethoxy]-acetyl)2-(εK)-CO-(CH2)18-CO2H); Aib20; D-Glu24; C-terminal NH2
Ki [1]: 1.37 nM | Ki [2]: 74.2 nM | Ki [3]: 0.0786 nM

B12: Example 189 (peptide)
peptide: YXEGTXTSDXSIXLDEKAQXEFIXYLIEGGPSSGAPPPS
modifications: Aib2; αMeF(2F)6; 4Pal10; αMeL13; K17((2-[2-(2-Amino-ethoxy)-ethoxy]-acetyl)2-(γ-Glu)-CO-(CH2)18-CO2H); Aib20; Aib24; C-terminal NH2
Ki [1]: 8.81 nM | Ki [2]: 146 nM | Ki [3]: 0.128 nM

B13: Example 157 (peptide)
peptide: YXEGTXTSDXSIXLDEKAQXEFIEYLIEGGPSSGAPPPS
modifications: Aib2; αMeF(2F)6; 3Pal10; αMeL13; K17((2-[2-(2-Amino-ethoxy)-ethoxy]-acetyl)2-(γ-Glu)-CO-(CH2)18-CO2H); Aib20; C-terminal NH2
Ki [1]: 8.97 nM | Ki [2]: 179 nM | Ki [3]: 0.0937 nM

B14: Example 143 (peptide)
peptide: YXEGTXTSDYSIXLDKKAQXXFIEYLIEGGPSSGAPPPS
modifications: Aib2; αMeF6; αMeL13; K17((2-[2-(2-Amino-ethoxy)-ethoxy]-acetyl)2-(γ-Glu)-CO-(CH2)18-CO2H); Aib20; Aib21; C-terminal NH2
Ki [1]: 1.15 nM | Ki [2]: 65.5 nM | Ki [3]: 0.0304 nM

B15: Example 144 (peptide)
peptide: YXEGTXTSDYSIXLDKKAQHXFIEYLIEGGPSSGAPPPS
modifications: Aib2; αMeF6; αMeL13; K17((2-[2-(2-Amino-ethoxy)-ethoxy]-acetyl)2-(γ-Glu)-CO-(CH2)18-CO2H); Aib21; C-terminal NH2
Ki [1]: 1.78 nM | Ki [2]: 77 nM | Ki [3]: 0.0341 nM

B16: Example 202 (peptide)
peptide: YXEGTXTSDXSIXLDKKAQXEFIXYLIEGGPSSGAPPPS
modifications: Aib2; αMeF(2F)6; 4Pal10; αMeL13; K17((2-[2-(2-Amino-ethoxy)-ethoxy]-acetyl)-(γ-Glu)-(2-[2-(2-Amino-ethoxy)-ethoxy]-acetyl)-CO-(CH2)18-CO2H); Aib20; D-Glu24; C-terminal NH2
Ki [1]: 5.38 nM | Ki [2]: 394 nM | Ki [3]: 0.0579 nM

B17: Example 203 (peptide)
peptide: YXEGTXTSDXSIXLDKKAQXEFIXYLIEGGPSSGAPPPS
modifications: Aib2; αMeF(2F)6; 4Pal10; αMeL13; K17((2-[2-(2-Amino-ethoxy)-ethoxy]-acetyl)2-(γ-Glu)-CO-(CH2)18-CO2H); Aib20; D-Glu24; C-terminal NH2
Ki [1]: 3.9 nM | Ki [2]: 845 nM | Ki [3]: 0.0337 nM

B18: Example 133 (peptide)
peptide: [Desaminotyrosyl][Aib]EGT[αMeF]TSDYSI[Aib]LDEK([AEEA-AEEA-γGlu-C20 diacid])AQ[Aib]AFIEYLIEGGPSSGAPPPS-NH2
SMILES: CC[C@H](C)[C@H](NC(=O)[C@H](CC(C)C)NC(=O)[C@H](Cc1ccc(O)cc1)NC(=O)[C@H](CCC(=O)O)NC(=O)[C@@H](NC(=O)[C@H](Cc1ccccc1)NC(=O)[C@H](C)NC(=O)C(C)(C)NC(=O)[C@H](CCC(N)=O)NC(=O)[C@H](C)NC(=O)[C@H](CCCCNC(=O)COCCOCCNC(=O)COCCOCCNC(=O)CC[C@H](NC(=O)CCCCCCCCCCCCCCCCCCC(=O)O)C(=O)O)NC(=O)[C@H](CCC(=O)O)NC(=O)[C@H](CC(=O)O)NC(=O)[C@H](CC(C)C)NC(=O)C(C)(C)NC(=O)[C@@H](NC(=O)[C@H](CO)NC(=O)[C@H](Cc1ccc(O)cc1)NC(=O)[C@H](CC(=O)O)NC(=O)[C@H](CO)NC(=O)[C@@H](NC(=O)[C@](C)(Cc1ccccc1)NC(=O)[C@@H](NC(=O)CNC(=O)[C@H](CCC(=O)O)NC(=O)C(C)(C)NC(=O)CCc1ccc(O)cc1)[C@@H](C)O)[C@@H](C)O)[C@@H](C)CC)[C@@H](C)CC)C(=O)N[C@@H](CCC(=O)O)C(=O)NCC(=O)NCC(=O)N1CCC[C@H]1C(=O)N[C@@H](CO)C(=O)N[C@@H](CO)C(=O)NCC(=O)N[C@@H](C)C(=O)N1CCC[C@H]1C(=O)N1CCC[C@H]1C(=O)N1CCC[C@H]1C(=O)N[C@@H](CO)C(N)=O
Ki [1]: 11.4 nM | Ki [2]: 216 nM | Ki [3]: 0.157 nM
